We go through 1 substance from patent publication US20210404962A1.

Test [1] concerns the target GFP1-10 (large fragment of GFP) (Aequorea victoria (Water jellyfish) (Mesonema victoria)) [GFP: P42212]. Kind of test: fluorescence reconstitution, pseudo-first order, one phase association fit.
The target is the same in test [2]. Put plainly: fluorescence reconstitution kinetics, calculated from kobs at varied GFP11 concentrations.
Test [3] has the same target. Put plainly: fluorescence reconstitution, pseudo-first order, one phase association fit; GFP11 concentration not stated.
Test [4] has the same target. Put plainly: fluorescence increase over time with varied GFP11 peptide and purified GFP1-10 at 3 mM, one site binding model.
For test [5] the target is unchanged. Put plainly: stopped-flow fluorescence reconstitution, pseudo-first order, one phase association fit; 50 nM GFP11, excess GFP1-10.

The substance “GFP11 peptide (chemically synthesized small fragment of split GFP; variant not stated)” yielded a half time in test [1] of 95 s. Further, the kon in test [2] is 760000 M⁻¹ s⁻¹. Also, the kobs worked out at 0.007 s⁻¹ in test [3] and 0.003 s⁻¹ in test [5]. This substance displayed a Kd in test [4] of 481 µM.

As a reminder, the kon is a measure of how fast the partners come together. The Kd is the equilibrium constant for the complex coming apart.
